From paper PMC3421062

Columns and labels:
[1] = target: N130-V5 recombinant protein (NAC1 BTB domain only) (UniProt Q96RE7); experiment: pull-down
[2] = target: NAC1-V5 recombinant protein (UniProt Q96RE7); experiment: pull-down

Kd [1]: 520 nM
Kd [2]: 780 nM
Substance: purified recombinant actin (Cytoskeleton Inc.) (from UniProt P60709 1-375) (natural protein)
